Values of other authors, collected in patent US20250064829A1, “METHODS OF USING ANTI-CD79B IMMUNOCONJUGATES TO TREAT DIFFUSE LARGE B-CELL LYMPHOMA” (Genentech, Inc., priority 2019, published 2025).

Columns and labels:
[1] = 1000 mg/m^2 at fixed dose rate of 10 mg/m^2/min compared to the standard 30-minute IV schedule
human CD20 antigen [2] = molecular target: T1, human CD20 antigen (Homo sapiens, UniProt P11836); settings: in vitro mechanism of action studies (Reff et al. 1994)
T1 sequence (P11836 1-297): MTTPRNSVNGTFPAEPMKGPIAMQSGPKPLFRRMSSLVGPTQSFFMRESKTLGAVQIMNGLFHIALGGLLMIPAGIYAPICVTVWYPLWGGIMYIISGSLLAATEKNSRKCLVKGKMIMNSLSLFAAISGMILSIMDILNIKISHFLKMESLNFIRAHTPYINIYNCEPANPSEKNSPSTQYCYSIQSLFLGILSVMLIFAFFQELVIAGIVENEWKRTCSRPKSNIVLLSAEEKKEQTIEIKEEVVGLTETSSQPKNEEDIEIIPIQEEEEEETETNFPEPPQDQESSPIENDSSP

human CD20 antigen [3] = molecular target: T1, human CD20 antigen; settings: in vitro

Compound	intracellular drug concentrations [1]	human complement-dependent cytotoxicity (CDC) (human CD20 antigen [2])	activity in assays that measure antibody-dependent cellular cytotoxicity (ADCC) (human CD20 antigen [3])
Cl.Nc1ccn([C@@H]2O[C@H](CO)[C@@H](O)C2(F)F)c(=O)n1 [gemcitabine, 2′-deoxy-2′,2′-difluorocytidine monohydrochloride]	superior intracellular drug concentrations		
rituximab: anti-CD20 antibody having the CAS Registry Number 174722-31-7; type I anti-CD20 antibody		exhibits human complement-dependent cytotoxicity (CDC)	exhibits activity
